According to PMC3332082:

How the values were obtained:
[1] = biological target: murine cdb3-GFP, substitution of residues 19-23 (acidic residues to amides) (mouse) (UniProt P04919); assay: FRET or BRET
[2] = biological target: murine cdb3-GFP, deletion of residues 19-23 (mouse) (UniProt P04919); assay: FRET or BRET
[3] = biological target: murine cdb3-GFP, substitution of residues 12-23 (all 7 acidic residues to amides) (mouse) (UniProt P04919); assay: FRET or BRET
[4] = biological target: murine cdb3-GFP, substitution of residues 25-31 (negative residues introduced) (mouse) (UniProt P04919); assay: other fluorescence titration

- reduction in deoxyHb binding against wild type [1]: 60%
- reduction in deoxyHb binding against wild type [2]: 60%
- affinity for deoxyHb, percent of normal [3]: 15%
- Kd [4]: 390 nM
Substance: murine hemoglobin (from erythrocytes of C57BL/6J mice) (from UniProt P01942 1-142; P02088 1-147) (complex)
